Data on five proteins can be found in FireProtDB (doi:10.1021/bi060038+).

The labels stand for the following.
B1: Phosphocarrier protein HPr wild type, P42013 (protein)
chain: MAEKTFKVVSDSGIHARPATILVQTASKFNSEIQLEYNGKTVNLKSIMGVMSLGIPKGATIKITAEGADAAEAMAALTDTLAKEGLAE
B2: Phosphocarrier protein HPr wild type, Q9K8D2 (protein)
chain: MAEKTFTITAETGIHARPATQLVNKAGQYSSEITLEYKGKAVNLKSIMGVMSLGVGKGAQVTIKAEGSDEAEALKGIEEVIKEGLGE
B3: Phosphocarrier protein HPr wild type, Q8ENY1 (protein)
chain: MKSQTFTITAETGVHARPATLLVNKAGQFDSEIEVSYKGKQVNLKSIMGVMSLGIPKGAEIEVSADGKDEEDALNGVAEVIKEHLGE
B4: Phosphocarrier protein HPr wild type, P08877 (protein)
chain: MAQKTFKVTADSGIHARPATVLVQTASKYDADVNLEYNGKTVNLKSIMGVMSLGIAKGAEITISASGADENDALNALEETMKSEGLGE
B5: Phosphocarrier protein HPr wild type, Q8VP89 (protein)
chain: MASKDFHIVAETGIHARPATLLVQTASKFASDITLEYKGKAVNLKSIMGVMSLGVGQGADVTISAEGPDADDAIAAIAETMTKEGLA

The conditions of one data set: Geobacillus stearothermophilus; pH 7; 25 °C; GdnHCl; CD; sodium phosphate 10 mM; reversible: Yes; whole UniProt chain shown.
As for B1, the denaturant m value is 2.43 kcal/mol/M and the unfolding free energy was 6.7 kcal/mol.

Still in this data set, the particulars now being: Geobacillus stearothermophilus; pH 7; 25 °C; Urea; CD; sodium phosphate 10 mM; reversible: Yes; whole UniProt chain shown.
With B1, the denaturant m value is 0.98 kcal/mol/M and the unfolding free energy stood at 8.2 kcal/mol.

Staying with this data set, now noted: Geobacillus stearothermophilus; pH 7; Thermal; CD; sodium phosphate 10 mM; reversible: Yes; whole UniProt chain shown.
One may read the Tm as the temperature at the midpoint of the melting transition. In the case of B1, the Tm stood at 88.3 °C and the “unfolding enthalpy (van 't Hoff)” value is 99 kcal/mol.

Staying with this data set, now noted: Halalkalibacterium halodurans (strain ATCC BAA-125 / DSM 18197 / FERM 7344 / JCM 9153 / C-125); pH 7; 25 °C; GdnHCl; CD; sodium phosphate 10 mM; reversible: Yes; whole UniProt chain shown.
In the case of B2, the denaturant m value worked out at 2.36 kcal/mol/M and the unfolding free energy was 5.3 kcal/mol.

The same data set, now with this note: Halalkalibacterium halodurans (strain ATCC BAA-125 / DSM 18197 / FERM 7344 / JCM 9153 / C-125); pH 7; 25 °C; Urea; CD; sodium phosphate 10 mM; reversible: Yes; whole UniProt chain shown.
As for B2, the denaturant m value was determined as 0.9 kcal/mol/M and the unfolding free energy was 6.8 kcal/mol.

Still in this data set, the particulars now being: Halalkalibacterium halodurans (strain ATCC BAA-125 / DSM 18197 / FERM 7344 / JCM 9153 / C-125); pH 7; Thermal; CD; sodium phosphate 10 mM; reversible: Yes; whole UniProt chain shown.
With B2, the Tm came out at 82.3 °C and the “unfolding enthalpy (van 't Hoff)” value stood at 87 kcal/mol.

The data set is the same for the next values; noted with them: Oceanobacillus iheyensis (strain DSM 14371 / CIP 107618 / JCM 11309 / KCTC 3954 / HTE831); pH 7; 25 °C; GdnHCl; CD; sodium phosphate 10 mM; reversible: Yes; whole UniProt chain shown.
Turning to B3, the denaturant m value is 2.56 kcal/mol/M and the unfolding free energy amounted to 1.4 kcal/mol.

The same data set, now with this note: Oceanobacillus iheyensis (strain DSM 14371 / CIP 107618 / JCM 11309 / KCTC 3954 / HTE831); pH 7; 25 °C; Urea; CD; sodium phosphate 10 mM; reversible: Yes; whole UniProt chain shown.
With B3, the denaturant m value was 1.27 kcal/mol/M and the unfolding free energy is 3.4 kcal/mol.

The data set is the same for the next values; noted with them: Oceanobacillus iheyensis (strain DSM 14371 / CIP 107618 / JCM 11309 / KCTC 3954 / HTE831); pH 7; Thermal; CD; sodium phosphate 10 mM; reversible: Yes; whole UniProt chain shown.
With B3, the Tm turned out to be 58 °C and the “unfolding enthalpy (van 't Hoff)” value was 59 kcal/mol.

Still in this data set, the particulars now being: Bacillus subtilis (strain 168); pH 7; 25 °C; GdnHCl; CD; sodium phosphate 10 mM; reversible: Yes; whole UniProt chain shown.
With B4, the denaturant m value came out at 3.28 kcal/mol/M and the unfolding free energy came to 3.4 kcal/mol.

The data set is the same for the next values; noted with them: Bacillus subtilis (strain 168); pH 7; 25 °C; Urea; CD; sodium phosphate 10 mM; reversible: Yes; whole UniProt chain shown.
Regarding B4, the denaturant m value came to 1.08 kcal/mol/M and the unfolding free energy was 5 kcal/mol.

Still in this data set, the particulars now being: Bacillus subtilis (strain 168); pH 7; Thermal; CD; sodium phosphate 10 mM; reversible: Yes; whole UniProt chain shown.
On to B4, for which the melting temperature (Tm) amounted to 73 °C and the “unfolding enthalpy (van 't Hoff)” value is 77 kcal/mol.

The data set is the same for the next values; noted with them: Streptococcus thermophilus; pH 7; 25 °C; GdnHCl; CD; sodium phosphate 10 mM; reversible: Yes; whole UniProt chain shown.
On to B5, for which the denaturant m value was determined as 2.75 kcal/mol/M and the unfolding free energy was 5.4 kcal/mol.

The same data set, now with this note: Streptococcus thermophilus; pH 7; 25 °C; Urea; CD; sodium phosphate 10 mM; reversible: Yes; whole UniProt chain shown.
Consider B5, for which the denaturant m value came out at 0.86 kcal/mol/M and the unfolding free energy turned out to be 6.3 kcal/mol.
